Results reported in US20100204147A1, “Methods For Delivering Thymosin Beta 4, Analogues, Isoforms and Other Derivatives” (REGENERX BIOPHARMACEUTICALS, INC., priority 2003, published 2010).

Key:
Test in all cases: cell-based or functional assay
[1] = molecular target: Human fibrinogen depleted of plasminogen, fibronectin and von Willebrand factor (human) (UniProt P02671)
[2] = molecular target: Fibrin (made from human fibrinogen with bovine thrombin) (human) (UniProt P02671)
[3] = molecular target: Recombinant γ-module comprising residues 148-411 of the human fibrinogen γ chain (human) (UniProt P02679)

degree of factor XIIIa-mediated incorporation after 4 hours (spectrophotometric) (moles per mole) [1]	degree of factor XIIIa-mediated incorporation after 4 hours (spectrophotometric) (moles per mole) [2]	apparent Michaelis constant (Km) for the reaction of incorporation by factor XIIIa [3] [µM]	Substance
0.2	0.4	–	FITC-labeled thymosin β4 (from UniProt P62328 2-44) (peptide)
–	–	183	Synthetic thymosin β4 (from UniProt P62328 2-44) (peptide)
